Test results reported in patent publication US20250136674A1 (KYOTO UNIVERSITY, published 2025).

Target: T1, purified full-length recombinant mouse USAG-1 (mouse, UniProt Q9CQN4 24-206)
T1 construct: also called purified recombinant mouse USAG-1 protein
T1 sequence (looked up): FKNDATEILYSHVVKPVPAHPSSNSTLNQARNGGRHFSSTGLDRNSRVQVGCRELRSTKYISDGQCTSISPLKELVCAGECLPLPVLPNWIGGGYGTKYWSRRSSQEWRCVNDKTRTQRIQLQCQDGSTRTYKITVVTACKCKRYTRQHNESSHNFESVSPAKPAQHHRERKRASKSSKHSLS
Assay: BLI (Octet Red), antibody immobilised, mouse USAG-1 at 10, 30 and 100 nM, global fitting
Description: For the antibody obtained in Example 1, affinity (KD values) was determined by using a BLI method based on Octet (registered trademark) Red (manufactured by Pall ForteBio). Specifically, each antibody was immobilized on the biosensor, the purified recombinant mouse USAG-1 protein was added at three different concentrations (10 nM, 30 nM, 100 nM), and binding and dissociation curves were obtained. The affinities were calculated by subjecting the obtained curves to global fitting with an analysis program attached to the Octet device.

B1: mouse anti-USAG-1 neutralizing antibody B48C (antibody, V domains shown)
VH: EVQLQQSGAELVRPGASVKLSCTASGFNIKDDYMHWVKQRPEQGLEWIGWIDPENGDTEYASKFQGKATITADTSSNTAYLQLSSLTSEDTAVYYCITPYYYGSSFSYWYFDVWGTGTTVTVSS
VL: DVLMTQTPLSLPVSLGDQASISCRSSQSIVHSNGNTYLEWYLQKPGQSPKLLIYKVSNRFSGVPDRFSGSGSGTDFTLKISRVEAEDLGVYYCFQGSHVPWTFGGGTKLEIKR
notes: Mouse monoclonal from a hybridoma (USAG-1 KO mouse immunised with rat USAG-1)
Kd: 3.26 nM
